Data: patent publication US20110064819A1, “ENCAPSULATION OF BIOLOGICALLY ACTIVE AGENTS” (priority 2008, published 2011)

Assay: HIP extraction of dalargin into the organic phase (LC-MS and Edman sequencing)
Type: physicochemical
Details: docusate sodium in dichloromethane, peptide solution pH 3.05
Procedure: A solution of the hexapeptide dalargin was prepared by dissolving 30-60 mg of the peptide into 3 ml of CaCl2 (18.3 mM) and lowering the pH to 3.05 by addition of concentrated HCl (2M). The resulting solution (500 μl, 10-20 mg/ml, and total amount of peptide 5-10 mg) was added to a solution of the HIP agent docusate sodium in dichloromethane (1 ml, 3.058-6.116% w/v) in a 2 ml eppendorf tube. The volume of HIP solution used was twice that of the peptide solution (1 ml HIP solution for 500 μl peptide solution). The molar ratio of HIP:peptide was 10:1 with 5 mg peptide and 5:1 with 10 mg peptide. The organic and aqueous phases were mixed by vortexing at maximum speed for 1 minute. The resulting suspension was then centrifuged to separate the two phases at 20,817 rcf for 50 minutes. The organic layer (containing solubilised peptide) was collected and used to prepare nanoparticles. In order to confirm that the process had been successful at solubilising the peptide into the organic phase, the amount of peptide remaining in the aqueous phase was determined.

## dalargin (YAGFLR; Humanised sequence of mus musculus and homo sapiens) [hexapeptide YAGFLR]
  Peptide extracted into the organic phase: at least 99%
